Literature values as cited in publication PMC3865722.
Read-outs that look alike come from different tables or passages of the source.

Tests used:
SRSF1 (Homo sapiens) [1] = target: SRSF1 (Homo sapiens) (UniProt Q07955)
SRSF1 (Homo sapiens) [2] = target: SRSF1 (Homo sapiens) (UniProt Q07955); remark: listed apart in the source

Sequence of SRSF1 (Homo sapiens) (Q07955 2-248): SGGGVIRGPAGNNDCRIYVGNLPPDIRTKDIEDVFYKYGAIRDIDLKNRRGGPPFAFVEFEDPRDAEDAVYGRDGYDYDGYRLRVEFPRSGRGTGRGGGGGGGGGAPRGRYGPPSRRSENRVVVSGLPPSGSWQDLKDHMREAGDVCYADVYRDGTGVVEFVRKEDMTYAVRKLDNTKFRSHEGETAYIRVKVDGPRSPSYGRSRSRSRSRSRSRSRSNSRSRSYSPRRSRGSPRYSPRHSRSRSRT
Sequence of CLK1 (P49759 whole entry): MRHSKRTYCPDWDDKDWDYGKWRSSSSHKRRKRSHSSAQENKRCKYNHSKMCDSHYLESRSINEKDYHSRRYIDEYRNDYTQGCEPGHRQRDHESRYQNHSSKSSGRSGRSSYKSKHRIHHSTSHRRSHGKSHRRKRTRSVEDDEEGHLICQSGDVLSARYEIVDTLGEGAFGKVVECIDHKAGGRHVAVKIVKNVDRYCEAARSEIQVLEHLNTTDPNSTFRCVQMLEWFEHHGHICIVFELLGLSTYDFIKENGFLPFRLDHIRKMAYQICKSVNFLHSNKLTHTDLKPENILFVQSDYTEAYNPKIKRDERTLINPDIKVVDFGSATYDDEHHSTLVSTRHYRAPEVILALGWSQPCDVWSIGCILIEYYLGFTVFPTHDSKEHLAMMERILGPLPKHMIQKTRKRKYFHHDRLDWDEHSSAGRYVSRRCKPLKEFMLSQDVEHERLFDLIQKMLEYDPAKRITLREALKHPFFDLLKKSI

Kd (SRSF1 (Homo sapiens) [1]) [nM]	Kd (SRSF1 (Homo sapiens) [2]) [nM]	Substance
< 100	–	SRPK1 (from UniProt Q96SB4)
–	< 100	CLK1 (from UniProt P49759)
